Results on 4 molecules are retold here after US20120301476A1 (TORAY INDUSTRIES, published 2012).

Test [1] concerns the target T1, human CAPRIN-1 protein on the cell surfaces of human cancer cell lines and in human cancer tissues (human, UniProt Q14444 2-709).
T1 sequence (looked up): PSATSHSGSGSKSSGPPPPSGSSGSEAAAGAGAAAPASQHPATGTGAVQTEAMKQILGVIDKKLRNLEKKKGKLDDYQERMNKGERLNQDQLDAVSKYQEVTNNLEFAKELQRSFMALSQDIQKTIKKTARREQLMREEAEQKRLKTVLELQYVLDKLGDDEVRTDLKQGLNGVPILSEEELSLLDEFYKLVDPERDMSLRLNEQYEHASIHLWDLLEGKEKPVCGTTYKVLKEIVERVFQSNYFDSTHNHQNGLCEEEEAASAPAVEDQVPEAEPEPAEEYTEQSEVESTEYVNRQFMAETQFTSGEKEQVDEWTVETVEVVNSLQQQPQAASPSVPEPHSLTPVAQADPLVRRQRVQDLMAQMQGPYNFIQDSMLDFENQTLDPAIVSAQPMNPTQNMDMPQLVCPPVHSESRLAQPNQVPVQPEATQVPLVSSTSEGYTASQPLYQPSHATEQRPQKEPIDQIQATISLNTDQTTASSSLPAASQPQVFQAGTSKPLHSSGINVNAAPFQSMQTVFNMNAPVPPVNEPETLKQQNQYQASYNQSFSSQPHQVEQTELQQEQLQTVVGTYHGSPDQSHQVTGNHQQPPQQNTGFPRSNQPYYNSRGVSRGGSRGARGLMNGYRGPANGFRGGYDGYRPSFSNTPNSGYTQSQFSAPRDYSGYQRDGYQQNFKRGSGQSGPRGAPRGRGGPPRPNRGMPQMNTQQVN
The experiment in a line: cell-based or functional assay.

The target of test [2] is T1, human CAPRIN-1 protein on the cell …. The experiment in a line: flow cytometry on the listed human cancer cell lines, culture supernatant, against negative control. The protocol:
10⁶ cells of each cell line were centrifuged in a 1.5 ml microcentrifuge tube. Each cell culture supernatant (100 μl) of CHO-K1 cells containing #1 obtained in (2) above and hybridomas producing #2, #3, #4, #5, and #6 obtained in Example 3 was added and then left to stand on ice for 1 hour. After washing with PBS, a FITC-labeled goat anti-human IgG (H+L) antibody (SouthernBiotech) and a FITC-labeled anti-mouse IgG (H+L) antibody (Invitrogen) diluted 500-fold with PBS containing 0.1% FBS were added and then left to stand on ice for 1 hour. After washing with PBS, fluorescence intensity was measured using a FACS Calibur (Becton, Dickinson). Meanwhile, procedures similar to the above were performed using a culture supernatant of CHO-K1 cells into which no antibody gene had been introduced and medium for culturing hybridomas, so that a negative control sample was prepared. […] Specifically, when the antibody #1 was used, fluorescence intensity was enhanced to 4700% in the case of SK-BR-3 and 5500% in the case of MDA-MB-231V. Also, when the antibodies #2, #3, #4, #5, and #6 were used, fluorescence intensity was enhanced. […] The percentage of enhancement in the above fluorescence intensity was expressed as percentage of increase in mean fluorescence intensity (MFI level) in each type of cell and calculated by the following formula.

For test [3], the target named is T2, peptide of SEQ ID NO: 70 (partial sequence in the polypeptide of SEQ ID NO: 37) (human).
T2 peptide: FTSGEKEQVDEW
The experiment in a line: ELISA on immobilised synthetic peptides. The protocol:
(§1) Each peptide was dissolved in 0.1M sodium carbonate buffer (pH 9.6) at a concentration of 30 μg/ml, added to a 96-well plate (Nunc, Product No. 436006) at 100 μl per well, and then left to stand at 4° C. overnight. The solution was discarded, 10 mM ethanolamine/0.1M sodium carbonate buffer (PH 9.6) was added at 200 μl per well, and then the plate was left to stand at room temperature for 1 hour. The solution was discarded, the plate was washed twice with PBS (PBST) containing 0.5% Tween20, so that the plate with each peptide immobilized thereto was prepared.
(§2) A cell culture supernatant containing the human-chicken chimeric monoclonal antibody (#1) and the mouse monoclonal antibodies (#2, #3, #4, #5, and #6) obtained in Example 4 (2) was added to the plate at 50 μl per well. After 1 hour of shaking at room temperature, the solution was removed, and then the plate was washed three times with PBST. Next, an HRP-labeled anti-human IgG (Invitrogen) antibody diluted 3000- to 4000-fold with PBST (a secondary antibody solution) was added to each well of the human-chicken chimeric monoclonal antibody and an HRP-labeled anti-mouse IgG (Invitrogen) antibody diluted 3000- to 4000-fold with PBST (a secondary antibody solution) was added to each well of the mouse monoclonal antibody, at 50 μl per well, and then the solution was removed, followed by six times of washing with PBST.
(§3) A TMB substrate solution (Thermo) was added at 100 μl per well, and the plate was left to stand for 15 to 30 minutes for coloring reaction. After color development, 1N sulfuric acid was added at 100 μl per well to stop the reaction and then absorbances at 450 nm and 595 nm were measured using an absorption spectrometer. As a result, the polypeptide of SEQ ID NO: 37 was identified as a CAPRIN-1 partial sequence that is recognized by all of the anti-CAPRIN-1 monoclonal antibodies #1 to #6. Furthermore, the peptide of SEQ ID NO: 69 was identified as a partial sequence in the above polypeptide of SEQ ID NO: 37, which is recognized by the monoclonal antibodies #1, #4, and #5. […]

The target in test [4] is T3, peptide of SEQ ID NO: 69 (partial sequence in the polypeptide of SEQ ID NO: 37) (human).
T3 peptide: QQPQAASPSVPE
The experiment in a line: ELISA on immobilised synthetic peptides. The protocol: as §1, §2, §3

B1: anti-CAPRIN-1 mouse monoclonal antibody #3 (antibody, V domains shown)
VH: GGGLVKPGGSLKLSCAASGFTFSSYGMSWVRQTPEKRLEWVATISSGGSYTYYPDSVKGRFTISRDNAKNTLYLQMSSLRSEDTAMYYCASLASYYFDYWGQGTTLTVSS
VL: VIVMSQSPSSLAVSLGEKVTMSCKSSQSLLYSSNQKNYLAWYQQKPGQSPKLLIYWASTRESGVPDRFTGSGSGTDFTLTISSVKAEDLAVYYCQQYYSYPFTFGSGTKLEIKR
Turning to B1, in test [1], the “cytotoxic activity (ADCC) against A549” value is no less than 24%, the “cytotoxic activity (ADCC) against ACHN” value was no less than 14%, the “cytotoxic activity (ADCC) against AML5” value is no less than 10% and the “cytotoxic activity (ADCC) against Caki-1” value was no less than 23%. For the same molecule, in test [1], the “cytotoxic activity (ADCC) against KYSE180” value was no less than 22%, the “cytotoxic activity (ADCC) against MDA-MB-157” value was determined as 32.4%, the “cytotoxic activity (ADCC) against MNK28” value was no less than 15% and the “cytotoxic activity (ADCC) against MNK45” value is no less than 10%. In addition, in test [1], the “cytotoxic activity (ADCC) against QG56” value is no less than 20%, the “cytotoxic activity (ADCC) against Ramos” value was no less than 10%, the “cytotoxic activity (ADCC) against SW480” value is no less than 17% and the “cytotoxic activity (ADCC) against SW756” value was no less than 16%. In test [1], the “cytotoxic activity (ADCC) against T24” value was no less than 18%, the “cytotoxic activity (ADCC) against T98G” value was no less than 12% and the “cytotoxic activity (ADCC) against U373” value is no less than 16%. The “percentage of increase in mean fluorescence intensity” value (from here on “percentage of increase”) in test [2] was no less than 20%.

B2: anti-CAPRIN-1 mouse monoclonal antibody #6 (antibody, V domains shown)
VH: DAELVKPGASVKISCKASGYTFTDHSIHWVQQKPEQGLEWIGYISPGNGNIKYNEKFKGKATLTADKSSSTAYMQLNSLTSEDSAVYFCKRSLGRGGPYYFDYWGQGTTVTVSS
VL: DIVLTQAAPSLPVTPGESVSISCRSSKSLLHSNGNTYLYWFLQRPGQSPQLLIYRMSNLASGVPDRFSGSGSGTAFTLRISRVEAEDVGVYYCMQHREYPVTFGSGPN
notes: Mouse hybridoma antibody; detected with anti-mouse IgG
Turning to B2, in test [1], the “cytotoxic activity (ADCC) against A549” value was no less than 24%, the “cytotoxic activity (ADCC) against ACHN” value was no less than 14%, the “cytotoxic activity (ADCC) against AML5” value was no less than 10% and the “cytotoxic activity (ADCC) against Caki-1” value was no less than 23%. In test [1], the “cytotoxic activity (ADCC) against KYSE180” value was no less than 22%, the “cytotoxic activity (ADCC) against MDA-MB-157” value was determined as 19%, the “cytotoxic activity (ADCC) against MNK28” value was no less than 15% and the “cytotoxic activity (ADCC) against MNK45” value was no less than 10%. Moreover, in test [1], the “cytotoxic activity (ADCC) against QG56” value is no less than 20%, the “cytotoxic activity (ADCC) against Ramos” value was no less than 10%, the “cytotoxic activity (ADCC) against SW480” value is no less than 17% and the “cytotoxic activity (ADCC) against SW756” value was no less than 16%. In test [1], the “cytotoxic activity (ADCC) against T24” value is no less than 18%, the “cytotoxic activity (ADCC) against T98G” value is no less than 12% and the “cytotoxic activity (ADCC) against U373” value was no less than 16%. The binding result in test [3] is reported as “binds”. In test [2], the “percentage of increase” value was no less than 20%.

B3: anti-CAPRIN-1 mouse monoclonal antibody #4 (antibody, V domains shown)
VH: GAELVRSGASVKMSCKASGYSFTDYNMYWVKQTPGQGLEWIGYIYPGNGGTNYNQKFKGKATLTADTSSSTAYMQISSLTSEDSAVYFCARDYDDGGYAMDYWGQGTTVTVSS
VL: DIQMTQSPASLSASVGETVTITCRASGNIHNYLTWYQQKQGKSPQLLVYNAKTLADGVPSRFSGSGSGTQYSLKINRLQPEDFGSYYCQHFWNIPWTFGGGTKLNSR
In the case of B3, in test [1], the “cytotoxic activity (ADCC) against A549” value was no less than 24%, the “cytotoxic activity (ADCC) against ACHN” value is no less than 14%, the “cytotoxic activity (ADCC) against AML5” value is no less than 10% and the “cytotoxic activity (ADCC) against Caki-1” value was no less than 23%. Besides, in test [1], the “cytotoxic activity (ADCC) against KYSE180” value was no less than 22%, the “cytotoxic activity (ADCC) against MDA-MB-157” value worked out at 31%, the “cytotoxic activity (ADCC) against MNK28” value is no less than 15% and the “cytotoxic activity (ADCC) against MNK45” value was no less than 10%. Moreover, in test [1], the “cytotoxic activity (ADCC) against QG56” value was no less than 20%, the “cytotoxic activity (ADCC) against Ramos” value was no less than 10%, the “cytotoxic activity (ADCC) against SW480” value was no less than 17% and the “cytotoxic activity (ADCC) against SW756” value is no less than 16%. Further, in test [1], the “cytotoxic activity (ADCC) against T24” value is no less than 18%, the “cytotoxic activity (ADCC) against T98G” value is no less than 12% and the “cytotoxic activity (ADCC) against U373” value was no less than 16%. For the same molecule, the “percentage of increase” value in test [2] was no less than 20%.

B4: anti-CAPRIN-1 mouse monoclonal antibody #5 (antibody, V domains shown)
VH: GAELVRSGASVKMSCKASGYSFTDYNMYWVKQTPGQGLEWIGYIYPGNGGTNYNQKFKGKATLTADTSSSTAYMQISSLTSEDSAVYFCARDYDDGGYAMDYWGQGTTVTVSS
VL: DIQMTQSPASLSASVGETVTITCRASGNIHNYLTWYQQKQGKSPQLLVYNAKTLADGVPSRFSGSGSGTQYSLKINRLQPEDFGSYYCQHFWNIPWTFGGGTKLNSR
notes: as for B2
Turning to B4, in test [1], the “cytotoxic activity (ADCC) against A549” value is no less than 24%, the “cytotoxic activity (ADCC) against ACHN” value was no less than 14%, the “cytotoxic activity (ADCC) against AML5” value is no less than 10% and the “cytotoxic activity (ADCC) against Caki-1” value was no less than 23%. Further, in test [1], the “cytotoxic activity (ADCC) against KYSE180” value was no less than 22%, the “cytotoxic activity (ADCC) against MDA-MB-157” value was determined as 30.9%, the “cytotoxic activity (ADCC) against MNK28” value is no less than 15% and the “cytotoxic activity (ADCC) against MNK45” value was no less than 10%. Besides, in test [1], the “cytotoxic activity (ADCC) against QG56” value is no less than 20%, the “cytotoxic activity (ADCC) against Ramos” value is no less than 10%, the “cytotoxic activity (ADCC) against SW480” value is no less than 17% and the “cytotoxic activity (ADCC) against SW756” value was no less than 16%. Moreover, in test [1], the “cytotoxic activity (ADCC) against T24” value is no less than 18%, the “cytotoxic activity (ADCC) against T98G” value was no less than 12% and the “cytotoxic activity (ADCC) against U373” value is no less than 16%. For the same molecule, the binding result in test [4] is on record as “binds”. The “percentage of increase” value in test [2] is no less than 20%.
